According to patent publication US20050244333A1 (CITY OF HOPE, published 2005):

T1: carcinoembryonic antigen (CEA) (human, UniProt P06731 35-685, biotinylated with EZ-Link Sulfo-NHS-LC-Biotin for the SPR assay)
T1 construct: Purified CEA; biotinylated and immobilised on a streptavidin chip for SPR, unlabelled in the immunoreactivity assay; also called purified CEA; CEA-biotin
T1 sequence (looked up): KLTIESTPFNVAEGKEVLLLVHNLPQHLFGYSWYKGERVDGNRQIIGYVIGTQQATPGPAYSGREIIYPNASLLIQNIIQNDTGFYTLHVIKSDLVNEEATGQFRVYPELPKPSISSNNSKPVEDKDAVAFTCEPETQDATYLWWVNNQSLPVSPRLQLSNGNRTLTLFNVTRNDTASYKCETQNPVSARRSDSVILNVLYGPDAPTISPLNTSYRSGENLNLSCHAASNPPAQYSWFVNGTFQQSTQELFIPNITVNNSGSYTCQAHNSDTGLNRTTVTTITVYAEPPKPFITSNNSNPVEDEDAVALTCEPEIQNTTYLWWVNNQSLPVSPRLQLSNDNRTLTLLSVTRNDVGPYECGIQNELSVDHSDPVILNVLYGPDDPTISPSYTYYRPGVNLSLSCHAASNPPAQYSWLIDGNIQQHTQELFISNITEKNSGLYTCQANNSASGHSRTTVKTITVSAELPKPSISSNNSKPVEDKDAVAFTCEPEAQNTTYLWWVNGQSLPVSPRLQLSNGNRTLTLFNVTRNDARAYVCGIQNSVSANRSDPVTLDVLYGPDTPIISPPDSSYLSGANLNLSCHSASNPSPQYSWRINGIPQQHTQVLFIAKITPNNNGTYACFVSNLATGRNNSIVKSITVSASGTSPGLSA


Tests used:
[1] = target: T1, carcinoembryonic antigen (CEA); test: SPR, Biacore 1000; biotinylated CEA on SA chip, antibody injected at 3.12-100 nM, bivalent analyte model; KA = kon/koff
Experimental: (§1) The binding affinity of the antibodies to purified CEA was determined by surface plasmon resonance (SPR) on a Biacore 1000 (Biacore AB, Uppsala, SW). CEA was biotinylated using the EZ-Link Sulfo-NHS-LC-Biotin kit (Pierce, Rockford, Ill.) and immobilized to a SA biosensor chip (Biacore Inc.) in HBS buffer. A series of increasing antibody concentrations (3.12, 6.25, 12.5, 25, 50, and 100 nM) were injected over a low density (175 RU) of the immobilized CEA-biotin for the association and dissociation phase, with regeneration by a single pulse of 6 M GuHCl. The data were analyzed by BIAevaluation (v3.0) software using the bivalent analyte model to calculate the KA=kₒₙ/koff. Antibody concentrations were determined by amino acid analysis.

[2] = target: T1, carcinoembryonic antigen (CEA); test: SPR, Biacore 1000; biotinylated CEA on SA chip, antibody injected at 3.12-100 nM, bivalent analyte model
Experimental: as §1

Ka [1] [M⁻¹] | koff [2] [s⁻¹] | kon [2] [M⁻¹ s⁻¹] | Binder
1.1e+10 | 3.01e-05 | 330000 | humanized T84.66 antibody M5A (antibody, V domains shown, For the immunoreactivity assay the antibody was labelled with 131I; also called M5A mAb; 131I-M5A) VH: EVQLVESGGGLVQPGGSLRLSCAASGFNIKDTYMHWVRQAPGKGLEWVARIDPANGNSKYADSVKGRFTISADTSKNTAYLQMNSLRAEDTAVYYCAPFGYYVSDYAMAYWGQGTLVTVSS VL: DIQLTQSPSSLSASVGDRVTITCRAGESVDIFGVGFLHWYQQKPGKAPKLLIYRASNLESGVPSRFSGSGSRTDFTLTISSLQPEDFATYYCQQTNEDPYTFGQGTKVEIK
1.9e+10 | 2.56e-05 | 488000 | humanized T84.66 antibody M5B (antibody, V domains shown, Expressed in NS0 cells as an intact antibody with constant regions of a human IgG and a kappa light chain; For the immunoreactivity assay the antibody was labelled with 131I; also called M5B mAb) VH: EVQLVESGGGLVQPGGSLRLSCAASGFNIKDTYMHWVRQAPGKGLEWVARIDPANGNSKYVPKFQGRATISADTSKNTAYLQMNSLRAEDTAVYYCAPFGYYVSDYAMAYWGQGTLVTVSS VL: DIQLTQSPSSLSASVGDRVTITCRAGESVDIFGVGFLHWYQQKPGKAPKLLIYRASNLESGVPSRFSGSGSRTDFTLTISSLQPEDFATYYCQQTNEDPYTFGQGTKVEIK
